Assay results published in the supplement of paper PMC10567573.

B1: PTPN9 (parent)
chain: NKWTVQYNVSPLSWNVAVKFLMAR

Variants of: B1
Assay: protein stability index of a GFP-peptide fusion (GPS, HEK-293T) (PSI 1-6); higher = more stable
Settings: c terminus: a fixed tail appended
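Note: lentivirally expressed fusions sorted by FACS into six bins by GFP to DsRed ratio, PSI derived from sequencing read proportions per bin multiplied by bin number.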

Point of comparison: K2T, protein stability index 3.13. Against it:
- V5I — higher, 3.45
- V5A — lower, 2.04
- V5K — higher, 3.16
- V5L — lower, 2.96
- V5C — lower, 1.83
- V5T — higher, 3.23
- V5S — lower, 1.99
- K2Y — lower, 2.49
- K2N — lower, 1.83
- K2A — lower, 2.25
- K2C — higher, 3.56
- K2I — higher, 3.27
- K2Q — lower, 2.27
- K2M — higher, 3.14
- K2R — lower, 1.66
- K2W — lower, 2.89
- K2D — higher, 3.84
- K2F — lower, 1.49
- K2E — higher, 3.64
- K2L — higher, 3.54
- T4P — lower, 1.76
- T4N — lower, 1.81
- T4Q — lower, 2.27
- T4M — lower, 2.57
- T4L — lower, 1.71
- T4Y — higher, 3.46
- T4A — lower, 2.55
- T4D — lower, 2.22
- N8C — higher, 3.2
- N8H — lower, 2.26
- N8L — lower, 2.45
- N8Y — higher, 3.61
- N8A — lower, 1.49
- N8D — lower, 2.07
- N8S — lower, 2
- N8T — lower, 2.15
- N8P — lower, 1.68
- N8R — lower, 2.26
- L12R — higher, 4.48
- L12D — higher, 3.6
- L12I — lower, 2.07
- L12P — lower, 1.52
- L12C — lower, 2.9
- L12Q — lower, 1.72
- L12W — lower, 3.11
- L12S — lower, 1.88
- L12A — higher, 4.28
- L12H — lower, 2.66
- L12V — lower, 2.89
- L12M — lower, 2.17
- S13K — lower, 2.74
- S13D — lower, 2.74
- S13H — lower, 2.51
- S13A — lower, 1.35
- S13P — lower, 2.31
- S13V — lower, 2.88
- S13I — lower, 1.99
- S13C — lower, 3.09
- S13E — lower, 1.69
- S13Y — lower, 2.32
- S13Q — lower, 2.02
- S13G — lower, 2.81
- S13M — higher, 3.55
- S13N — higher, 3.31
- S13R — lower, 2.34
- S13W — lower, 2.65
- V9Q — lower, 1.43
- V9S — lower, 2
- V9C — lower, 3.09
- V9Y — lower, 2.1
- V9W — lower, 2.98
- V9P — lower, 1.6
- V9K — lower, 2.56
- V9R — lower, 1.55
- V9G — higher, 3.82
- V9D — lower, 2.06
- V9I — higher, 4.2
- V9T — lower, 2.65
- V9E — lower, 1.46
- V9A — lower, 3.1
- V9L — lower, 2.45
- S10V — higher, 3.2
- S10D — lower, 2.26
- S10T — higher, 3.21
- S10A — lower, 2.26
- S10F — lower, 2.12
- S10Y — lower, 1.82
- S10W — lower, 2.48
- S10M — lower, 2.81
- S10C — higher, 3.37
- S10H — lower, 2.23
- S10I — lower, 1.62
- S10N — lower, 2.35
- V16K — higher, 3.3
- V16H — lower, 2.69
- V16R — higher, 3.68
- V16L — lower, 2.38
- V16A — lower, 2.35
- V16N — lower, 1.51
- V16P — lower, 1.99
- V16S — lower, 1.87
- V16Y — lower, 2.6
- V16E — lower, 2.65
- V16Q — lower, 1.52
- V16C — higher, 3.82
- V16G — lower, 2.55
- V16M — higher, 3.58
- V16F — higher, 3.88
- V16D — lower, 1.93
- W14A — lower, 2.09
- W14L — lower, 2.71
- W14S — lower, 1.78
- W14G — lower, 2.35
- W14I — lower, 3.02
- W14V — lower, 2.4
- W14Q — lower, 2.62
- W14M — lower, 2.75
- W14D — lower, 1.62
- W14P — lower, 2.08
- W14T — lower, 1.93
- W14Y — lower, 2.01
- W14K — lower, 2.24
- W14H — lower, 2.15
- W14E — lower, 1.28
- W14N — lower, 2.06
- W14C — lower, 2.29
- W14R — lower, 2.4
- Q6N — lower, 2.38
- Q6T — lower, 2.6
- Q6K — higher, 3.19
- Q6F — lower, 2.83
- Q6E — higher, 3.28
- Q6V — lower, 2.79
- Q6S — lower, 2.46
- Q6Y — lower, 2.07
- Q6P — lower, 2.54
- Q6D — lower, 2.28
- Q6M — lower, 2.02
- Q6R — higher, 4.19
- Q6A — lower, 1.78
- Q6C — lower, 2.98
- Q6G — lower, 1.7
- Q6H — higher, 3.77
- L21G — lower, 1.73
- L21I — higher, 3.32
- L21A — higher, 3.37
- L21E — lower, 1.9
- L21D — lower, 2.03
- L21H — lower, 2.98
- L21K — lower, 2.5
- N1W — higher, 3.28
- N1S — lower, 1.54
- N1H — lower, 2.3
- N1F — higher, 3.7
- N1V — lower, 2.06
- N15L — lower, 1.92
- N15I — higher, 3.96
- N15W — lower, 2.27
- N15E — higher, 3.45
- N15M — lower, 2.53
- N15F — lower, 2.02
- N15K — higher, 4.23
- N15T — lower, 2.89
- N15Y — lower, 1.9
- N15P — lower, 2.39
- N15A — higher, 3.46
